T1: murine CD300F stably expressed on Jurkat cells (mouse, UniProt Q6SJQ7 20-337)
T1 construct: also called muCD300F
T1 sequence: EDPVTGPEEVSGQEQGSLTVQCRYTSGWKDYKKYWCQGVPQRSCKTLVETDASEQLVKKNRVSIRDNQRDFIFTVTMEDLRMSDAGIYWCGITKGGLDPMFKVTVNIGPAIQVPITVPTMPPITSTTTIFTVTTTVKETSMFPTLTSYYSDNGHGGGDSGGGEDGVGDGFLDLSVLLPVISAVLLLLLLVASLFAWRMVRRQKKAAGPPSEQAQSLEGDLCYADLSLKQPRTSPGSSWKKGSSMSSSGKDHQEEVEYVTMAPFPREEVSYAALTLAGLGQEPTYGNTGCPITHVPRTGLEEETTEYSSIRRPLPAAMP

T2: recombinant human CD300LB overexpressed on Jurkat cells (human, UniProt A8K4G0 18-201)
T2 construct: also called huCD300LB; huCD300LB-expressing Jurkat cells
T2 sequence: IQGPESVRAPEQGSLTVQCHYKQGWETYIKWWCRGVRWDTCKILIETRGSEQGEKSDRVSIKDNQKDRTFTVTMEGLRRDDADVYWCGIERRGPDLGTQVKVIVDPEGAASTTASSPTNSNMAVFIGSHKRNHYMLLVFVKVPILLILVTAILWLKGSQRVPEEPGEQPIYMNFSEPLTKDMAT

T3: human CD300LB on primary human monocytes (human, UniProt A8K4G0 18-201)
T3 construct: Endogenous protein on primary cells; that the target is CD300LB is inferred from the antibodies being anti-CD300LB antibodies; also called Monocyte donor 1281; Monocyte donor 1282
T3 sequence: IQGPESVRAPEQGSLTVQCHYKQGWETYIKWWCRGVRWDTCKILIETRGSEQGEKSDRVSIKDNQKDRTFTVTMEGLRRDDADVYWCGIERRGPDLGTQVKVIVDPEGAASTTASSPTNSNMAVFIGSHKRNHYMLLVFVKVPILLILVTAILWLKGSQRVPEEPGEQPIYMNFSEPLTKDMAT

T4: murine CD300LB stably expressed on Jurkat cells (mouse, UniProt Q3U497 18-209)
T4 construct: also called muCD300LB; mouse CD300LB
T4 sequence: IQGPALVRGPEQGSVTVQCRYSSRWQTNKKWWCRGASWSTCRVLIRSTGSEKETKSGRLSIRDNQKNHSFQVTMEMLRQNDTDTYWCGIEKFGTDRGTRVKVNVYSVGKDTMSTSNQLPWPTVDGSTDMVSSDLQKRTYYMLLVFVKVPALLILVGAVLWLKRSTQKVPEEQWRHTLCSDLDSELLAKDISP


How the values were obtained:
[1] = biological target: T1, murine CD300F stably expressed on …; assay: flow cytometry, stable Jurkat cells, 10 ug/mL, isotype subtracted
Method: Purified anti-CD300LB antibodies of the present disclosure were analyzed for cross-reactivity to other murine CD300 family members stably expressed in Jurkat cells (generation of which is described above). Cells were counted and labeled with 200 nM CFSE, 500 nM VioBlue, or a combination of the two to discriminate between muCD300LB, Parental cells, CD300F, and the other CD300 family members. Cells were washed thoroughly with PBS containing 2% fetal bovine serum then resuspended at a total of 240,000 cells per well. Purified antibodies at 10 μg/mL were added and incubated for one hour before the cells were washed twice again and stained with an APC-labeled anti-mouse secondary. Cells were then analyzed using a BD FACSCanto II. Antibodies were analyzed for specific binding to muCD300LB by FlowJo software by gating on live cells, then the APC gMFI calculated for each labeled population by subtracting the gMFI of the isotype control. The gMFI results of the analysis are presented below in Table 4.

[2] = biological target: T2, recombinant human CD300LB overexpressed …; assay: flow cytometry on Jurkat cells overexpressing huCD300LB, apparent KD (Drake & Klakamp fit)
Method: (§1) Purified anti-CD300LB antibodies of the present disclosure were evaluated for their binding affinity to either Jurkat cells overexpressing recombinant huCD300LB or BaF/3 cells overexpressing recombinant muCD300LB. Binding of anti-CD300LB antibodies to the cells was determined as follows. Cells were harvested, washed, and labeled with propidium iodide for viability discrimination. After washing the cells with PBS, 1×10⁵ cells were aliquoted per well in 96-well U-bottom plates and incubated with 100 μL of purified anti-CD300LB antibody at various concentrations in FACS buffer (PBS+2% FBS). After this primary incubation, the supernatant was removed via centrifugation, the cells washed twice with 150 μL of ice-cold FACS buffer, and then incubated with the appropriate secondary antibody on ice for 30 minutes. Following the secondary antibody incubation, the cells were again washed twice with ice-cold FACS buffer and resuspended in a final volume of 200 L FACS buffer. Flow cytometry analysis was then performed using the FACSCanto system (BD Biosciences).
(§2) To determine affinity, antibodies at increasing concentrations were used to stain Jurkat cells overexpressing huCD300LB and geometric MFI values measured by the flow cytometer were analyzed on Prism (Graphpad) software.

[3] = biological target: T3, human CD300LB on primary human monocytes; assay: flow cytometry, primary human monocytes donor 1282, 10 ug/mL antibody, isotype control subtracted
Method: Human monocytes from various donors were isolated from whole blood using RosetteSep Human Monocyte Enrichment Cocktail (Stemcell technologies) and Ficoll centrifugation per manufacturer protocols. After lysing red blood cells with ACK lysing buffer, monocytes were resuspended in complete media (RPMI, 10% FBS, Pen/Strep, L-glutamine, HEPES, non-essential amino acid, Sodium pyruvate). To obtain macrophages from these isolated monocytes, 100 ng/ml human M-CSF and 8% v/v human serum were added to the cells for 5-7 days. Cells were counted on the day of the experiment and plated at 100,000 cells per well in a round-bottom 96 well plate. Cells were incubated with TruStain Fc block and 10 μg/mL antibody for 1 hour on ice before washing with 250 μL ice cold PBS twice. Cells were then incubated with the appropriate APC-conjugated secondary antibodies for 20 minutes in the dark on ice. Finally, cells were washed twice with ice cold FACS buffer and then resuspended in 100 μL FACS buffer containing 1% propidium iodide. Samples were immediately analyzed using a BD FACSCanto flow cytometer. The gMFI was calculated using FlowJo software minus the gMFI of the appropriate isotype control.

[4] = biological target: T2, recombinant human CD300LB overexpressed …; assay: flow cytometry, geometric mean (APC-A), Jurkat cells overexpressing huCD300LB
Method: as §1, §2

[5] = biological target: T4, murine CD300LB stably expressed on …; assay: flow cytometry, stable Jurkat cells

gMFI [1] [gMFI]	Kd [2] [nM]	gMFI [3] [gMFI]	also measured	Binder
2.1				anti-CD300LB antibody CD-12 (antibody, V domains shown) VH: QIQLVQSGPELKKPGETVKISCKASGYTFTDYSMHWVRQAPGKGLKWMAWINTETGEATHADDFKGRFDFSLDTSASTAYLQIKNLKNEDTGIYFCVCYGSSYGMDYWGQGTSVTVSS VL: DIVLTQSPASLPVSLGQRATISCRASKSVRTSGASYMHWYQQKPGQPPKLLIYLASNLKSGVPTRFSGSGSGTDFTLNIHPVEEEDAATYYCQHNREVPPTFGGGTKLEIK
1.85				anti-CD300LB antibody CD-15 (antibody, V domains shown) VH: QIQLVQSGPELKKPGETVKISCQVSGYTFTDYSMHWLKQAPGKGLKWMAWINTETGESTYTDEFKGRFVFSLETSVRTAYLKINNLKNEDTATYFCGTYGSSYGMAYWGQGTSVTVSS VL: DIVLTQSPASLPVSLGQRATISCRASKSVSTSGSSYLHWYQQKPGQPPKLLIYLASKLESGVPARFRGSGSGTDFTLNIHPVEEEDAATYYCQHNREVPPTFGGGTKLEIK
1.7				anti-CD300LB antibody CD-17 (antibody, V domains shown) VH: QIQLVQSGPELKKPGETVKISCKASGYTLTDYSMHWVKQAPGKGLKWMGWINTETGEPRYGDDFKGRFAFSLETSASSAYLQINNLKNDDTATYFCATYGRSYGMDFWGQGTSVTVSS VL: DIVLTQSPASLAVSLGQRATISCRASKSVSPSGHSYMHWYQQKPGQPPKLLIYLASNLKSGVPARFSGSGSGTDFTLNIHPVEEGDAATYYCQHNRELPPTFGGGSKLEIK
	66	468		anti-CD300LB antibody CD-07 (antibody, V domains shown) VH: QVQLVQSGAEVKKPGASVKVSCKASGYTFTNYRMHWVRQAPGQGLEWMGWINPNSGGTIYAQKFQGRVTMTRDTSTSTVYMELSSLRSEDTAVYYCARDLDYWGQGTLVTVSS VL: DIQMTQSPSSLSASVGDRVTITCQASQDISNYLNWYQQKPGKAPKLLIYGASSLQSGVPSRFSGSGSGTDFTLTISSLQPEDFATYYCQQSYSTPWTFGPGTKVEIK
	15	1560	EC50 (read off the curve) [4]: ~20 nM	anti-CD300LB antibody CD-05 (antibody, V domains shown) VH: QVQLVQSGAEVKKPGASVKVSCKASGYTFSRYYINWVRQAPGQGLEWMGWINPNSGGTNYAQKFQGRVTMTRDTSTSTVYMELSSLRSEDTAVYYCTTDQLRFGKTGPYYGMDVWGQGTTVTVSS VL: DIQMTQSPSSLSASVGDRVTITCRASQNIGTYLNWYQQKPGKAPKLLIYAASSLQSGVPSRFSGSGSGTDFTLTISSLQPEDFATYYCQQSYSDTLTFGGGTKVEIK
	329	3440		anti-CD300LB antibody CD-06 (antibody, V domains shown) VH: QVQLVQSGAEVKKPGASVKVSCKASGYTFTTYAVHWVRQAPGQGLEWMGIVNPNSGGTNYAQKFQGRVTMTRDTSTSTVYMELSSLRSEDTAVYYCARDIVPMNNFYNYYYGMDVWGQGTTVTVSS VL: DIQMTQSPSSLSASVGDRVTITCRASQSISSYLNWYQQKPGKAPKLLIYATSTLQSGVPSRFSGSGSGTDFTLTISSLQPEDFATYYCQQSYRIPYTFGQGTKVEIK
6.6				anti-CD300LB antibody CD-18 (antibody, V domains shown) VH: DVQLQESGPDLVKPSQSLSLTCTVTGYSITSGYSWHWIRQFPDNKLEWMGYILSRGDTNFNPSLKSRISITRSTSNNQFFLHFNSVTTEDTATYYCARDFFDYWGQGTTLTVSS VL: DVLMTQTPLSLPVSLGDQASISCRSSQSIVHSNGNTYLEWYLQKPGQSPKLLIYKVSDRFSGVPDRFSGSGSGTDFTLKISRVEAEDLGVYFCFQGSHVPYTFGGGTKLEIK
	64		binding result [5]: no binding (tested: 10 ug/mL)	anti-CD300LB antibody CD-02 (antibody, V domains shown) VH: QVQLQQPGAELVRPGSSVKLSCQASGYTFTNYWMHWVRQRPIQGLEWIGNIDPSDSETHYNQKFKDRATLTVDKSSSTAYMQLSSLTSEDSAVYYCARSGVYDDEGGDYWGQGTTLTVSS VL: ENVLTQSPAIMSASPGEKVTMTCSASSSVSYIHWYQQKSSTSPKLWIYDTSKLASGVPGRFSGSGSGNSYSLTISSMETEDVATYYCFQGSGYPLTFGAGTKLELK
2.35				anti-CD300LB antibody CD-11 (antibody, V domains shown) VH: QIQLVQSGPEVKKPGETVKISCKASGYTLTDYSMHWVMQTPGTGLKWMAWMNTETGEPTYADDFKGRFAFSLETSAGTAYLQIDNLKNEDTATYFCATYGKSYGMKYWGQGTSVTVSS VL: DIVLTQSPPSLAVSLGQRATISCRATKSVSPYLHWYQQTPGQPPKLLIYLASNLDSGVPARFSGSGSGTDFTLNIHPVEEEDAATYYCQHNKELPPTFGGGTRLEIK
	27			anti-CD300LB antibody CD-01 (antibody, V domains shown) VH: RVQLQQSGAELVRPGASVTLSCKASGFTFTDFEMHWVKKTPVHGLEWIGAIDPESGNTAYNQKFRGKATLTADKSSSTAYMELRYLTSEDSAVYYCTPLISGADYWGQGTTLTVSS VL: DVVMTQSPLSLPVSLGDQASISCRSSQSLVHSDGNTYLYWYLQKPGQSPKLLIYKVSNRFSGVPDRFSGSGSGTDFTFKISRVGAEDLGVYFCSQSTHVPWTFGGGTKLEII

Source: patent US20240254227A1 (Alector, published 2024)
